Sequences and labels used below:
B1: POU domain, class 4, transcription factor 2, residues 256 to 327; numbered along this chain, Q12837 (parent)
chain: RDLEAFAERFKQRRIKLGVTQADVGSALANLKIPGVGSLSQSTICRFESLTLSHNNMIALKPILQAWLEEAE
B2: Retinoic acid receptor beta, residues 85 to 161; numbered along this chain, P10826 (parent)
chain: YKPCFVCQDKSSGYHYGVSACEGCKGFFRRSIQKNMIYTCHRDKNCVINKVTRNRCQYCRLQKCFEVGMSKESVRND

± gives the uncertainty stated by the source.

The variants in one data set derive from B1. As to the kind of experiment: abundance fitness (aPCA) (normalised: wild type 0, dead -1); higher = more abundant; growth selection in yeast, the domain comes from the species named. The following applies: Homo sapiens.
As for K61E, the abundance fitness was -0.32 ± 0.095. The same measure, in the same setting: with K61H the figure was -0.137 ± 0.12; with K61M, 0.037 ± 0.093; with K61P, -0.802 ± 0.17. For E69L, the abundance fitness is -0.099 ± 0.1. For E69F, the abundance fitness was -0.251 ± 0.092. Turning to E69T, the abundance fitness is -0.133 ± 0.095. Consider V19H, for which the abundance fitness was -0.12 ± 0.13. As to V19M, the abundance fitness stood at 0.055 ± 0.081. Turning to D23M, the abundance fitness is -0.189 ± 0.17.

Take D23S: the abundance fitness is -0.068 ± 0.054. On the same count and under the same terms, with I58K the figure was 0.063 ± 0.076; with I58W, -0.152 ± 0.061; with I58T, -0.235 ± 0.14. Turning to I58D, the abundance fitness was -0.615 ± 0.27. Consider I58M, for which the abundance fitness was -0.118 ± 0.12. On the same count and under the same terms, with A29D the figure was 0.03 ± 0.44; with A29K, 0.042 ± 0.1; with A29E, -0.239 ± 0.079. A29S: the abundance fitness was 0.019 ± 0.052. For the variant A66C, the abundance fitness was -0.378 ± 0.12. The same measure, in the same setting: with A66T the figure was -0.096 ± 0.096. For A66P, the abundance fitness was -0.524 ± 0.068.

Take A66K: the abundance fitness came out at 0.004 ± 0.086. Same read-out and setting: with Q21Y the figure was -0.194 ± 0.1; with Q21A, -0.028 ± 0.091; with Q21M, -0.39 ± 0.097. The same measure, in the same setting: with Q21T the figure was 0.011 ± 0.066; with Q12H, 0.011 ± 0.16.

With Q12A, the abundance fitness amounted to 0.045 ± 0.056.

Consider Q12P, for which the abundance fitness is -1.22 ± 0.32. For Q12E, the abundance fitness was -0.016 ± 0.1. Regarding L31Q, the abundance fitness is 0.058 ± 0.08.

For L31M, the abundance fitness was 0.032 ± 0.11. As to L31P, the abundance fitness was -0.382 ± 0.098. On to I33P, for which the abundance fitness is -0.357 ± 0.1. Still for that read-out and setting: with I33Q the figure was -0.426 ± 0.17.

Turning to I33F, the abundance fitness was -0.211 ± 0.093. For the variant I33K, the abundance fitness was -0.421 ± 0.094. Turning to I33D, the abundance fitness is -0.225 ± 0.099. Consider I33H, for which the abundance fitness was -0.438 ± 0.17.

Consider I33W, for which the abundance fitness is -0.414 ± 0.099. The same measure, in the same setting: with I33V the figure was 0.008 ± 0.055; with I33E, -0.205 ± 0.18.

Take Q41P: the abundance fitness was -0.046 ± 0.063.

Take Q41T: the abundance fitness came to 0.077 ± 0.087. Q41I: the abundance fitness is -0.275 ± 0.14. In the case of Q41F, the abundance fitness is -0.335 ± 0.12. On the same count and under the same terms, with I63W the figure was -0.443 ± 0.25; with I63E, -0.018 ± 0.15. Same read-out and setting: with I63A the figure was -0.03 ± 0.077; with I63P, -0.329 ± 0.052. The same measure, in the same setting: with I63Q the figure was -0.489 ± 0.14; with I63G, -0.414 ± 0.07; with I63R, -0.314 ± 0.047. As for I63Y, the abundance fitness is -0.333 ± 0.31.

For G37W, the abundance fitness is -0.68 ± 0.14. Same read-out and setting: with G37Y the figure was -0.418 ± 0.23; with G37S, 0.028 ± 0.055; with G37N, -0.309 ± 0.28. On the same count and under the same terms, with G37T the figure was -0.162 ± 0.08; with R9N, -0.005 ± 0.19; with R9T, 0.033 ± 0.073. The same measure, in the same setting: with R9S the figure was 0.018 ± 0.047; with R9W, -0.136 ± 0.074. Turning to R9G, the abundance fitness was -0.061 ± 0.046.

Regarding R9H, the abundance fitness was 0.15 ± 0.077.

For R9K, the abundance fitness was determined as 0.007 ± 0.17.

In the case of R13F, the abundance fitness was -0.375 ± 0.13.

As for R13L, the abundance fitness was -0.223 ± 0.057. The same measure, in the same setting: with R13D the figure was -0.462 ± 0.34. For the variant R13Q, the abundance fitness is -0.113 ± 0.087. The same measure, in the same setting: with P62K the figure was -0.698 ± 0.13. The same measure, in the same setting: with P62L the figure was -0.982 ± 0.15. Same read-out and setting: with P62V the figure was -0.726 ± 0.11; with P62S, -0.465 ± 0.065. Turning to R46P, the abundance fitness was -1.01 ± 0.13. Same read-out and setting: with E8F the figure was -0.306 ± 0.16; with E8D, -0.172 ± 0.079. The same measure, in the same setting: with E8H the figure was -0.016 ± 0.085; with E8A, -0.232 ± 0.071; with A22Q, -0.052 ± 0.08. Regarding A22V, the abundance fitness is -0.339 ± 0.08. Still for that read-out and setting: with A22K the figure was -0.078 ± 0.12; with A22L, -0.222 ± 0.054; with A22E, -0.066 ± 0.1.

L64R: the abundance fitness is -1.08 ± 0.22. With L64D, the abundance fitness is -0.6 ± 0.2. Same read-out and setting: with L64N the figure was -0.823 ± 0.2; with L64K, -0.884 ± 0.42. Regarding L64M, the abundance fitness was -0.371 ± 0.095. Turning to V36L, the abundance fitness is 0.061 ± 0.046. Turning to V36Q, the abundance fitness is -0.147 ± 0.072. On the same count and under the same terms, with V36T the figure was -0.417 ± 0.09.

V36N: the abundance fitness was -0.387 ± 0.19. On the same count and under the same terms, with V36D the figure was -0.278 ± 0.21; with V36Y, -0.047 ± 0.25. For the variant V24W, the abundance fitness was -0.781 ± 0.11.

In the case of V24E, the abundance fitness was -0.88 ± 0.39. On the same count and under the same terms, with V24Y the figure was -0.975 ± 0.4; with V24K, -0.844 ± 0.21.

V24N: the abundance fitness was -0.821 ± 0.25. Still for that read-out and setting: with V24S the figure was -0.8 ± 0.12. Same read-out and setting: with K16C the figure was -0.137 ± 0.1.

Turning to K16I, the abundance fitness was -0.016 ± 0.1. The same measure, in the same setting: with K16H the figure was 0.028 ± 0.11. With K16W, the abundance fitness is -0.403 ± 0.14. On the same count and under the same terms, with K16A the figure was 0.001 ± 0.055.

As for K16F, the abundance fitness was -0.066 ± 0.11. In the case of C45S, the abundance fitness is 0.065 ± 0.059. As for C45G, the abundance fitness is 0.02 ± 0.069.

In the case of C45Q, the abundance fitness is 0.119 ± 0.11. Still for that read-out and setting: with C45R the figure was -0.008 ± 0.059; with T51A, -0.035 ± 0.033. T51W: the abundance fitness was -0.78 ± 0.37. For T51E, the abundance fitness is -0.059 ± 0.17. As for T51H, the abundance fitness was -0.232 ± 0.36.

For the variant T51D, the abundance fitness is -0.295 ± 0.39. On to T51P, for which the abundance fitness is -1.08 ± 0.32. Take T51C: the abundance fitness is -0.077 ± 0.11.

Consider T51K, for which the abundance fitness was 0.264 ± 0.16. On the same count and under the same terms, with I15F the figure was -0.36 ± 0.11. On the same count and under the same terms, with I15K the figure was 0.015 ± 0.086. Still for that read-out and setting: with I15G the figure was -0.515 ± 0.085.

On to I15N, for which the abundance fitness is -0.521 ± 0.14. In the case of I15P, the abundance fitness is -0.569 ± 0.087. In the case of L39Y, the abundance fitness was -0.53 ± 0.16. On to L39K, for which the abundance fitness was -0.141 ± 0.16. For L39M, the abundance fitness is -0.01 ± 0.087.

Turning to L39S, the abundance fitness is -0.304 ± 0.062. Same read-out and setting: with L39N the figure was -0.615 ± 0.35; with L39R, -0.718 ± 0.1. In the case of E70S, the abundance fitness is -0.11 ± 0.063.

Regarding E70T, the abundance fitness was -0.231 ± 0.12. Regarding L28S, the abundance fitness is -0.636 ± 0.064. Turning to L28D, the abundance fitness is -0.596 ± 0.44. Same read-out and setting: with L28A the figure was -0.654 ± 0.14; with L28M, 0.008 ± 0.085; with L28Y, -0.747 ± 0.16.

In the case of L28I, the abundance fitness turned out to be 0.072 ± 0.12. On the same count and under the same terms, with G18I the figure was -0.883 ± 0.13; with G18L, -0.598 ± 0.083.

G18E: the abundance fitness is -0.322 ± 0.13.

As for G18R, the abundance fitness is -0.372 ± 0.042. Regarding G18W, the abundance fitness is -0.778 ± 0.14. Consider G18N, for which the abundance fitness was -0.82 ± 0.26.

The variants in a further data set derive from B2. The data set is described as above. The settings on record: Homo sapiens.
Consider K2F, for which the abundance fitness was -0.266 ± 0.29. Turning to K2H, the abundance fitness was found to be 0.091 ± 0.11. Still for that read-out and setting: with K2I the figure was -0.144 ± 0.093. The same measure, in the same setting: with K2D the figure was 0.017 ± 0.088; with K2G, -0.182 ± 0.05; with K2A, -0.289 ± 0.082.

For K2E, the abundance fitness was -0.285 ± 0.081. The same measure, in the same setting: with Y1W the figure was -0.221 ± 0.081; with Y1K, 0.193 ± 0.13.

In the case of Y1C, the abundance fitness was -0.008 ± 0.085. With Y1N, the abundance fitness is 0.255 ± 0.07. In the case of Y1H, the abundance fitness was determined as 0.055 ± 0.13. Still for that read-out and setting: with Y1Q the figure was -0.132 ± 0.17; with Y1I, -0.01 ± 0.13; with Y1E, -0.109 ± 0.11. On the same count and under the same terms, with Y1T the figure was -0.109 ± 0.11; with Y1R, -0.239 ± 0.065. Same read-out and setting: with Y1M the figure was 0.067 ± 0.12. As for Y1L, the abundance fitness is -0.086 ± 0.067. Y1G: the abundance fitness was -0.097 ± 0.055. Consider Y1V, for which the abundance fitness came out at 0.158 ± 0.054.

Source of the values: the Human Domainome abundance scans (Beltran et al. 2025).
